Measured values: the nanobody polyreactivity screen of Harvey et al. (2022)

Assay: yeast display, Sf9 membrane polyspecificity reagent, FACS + sequencing; frameworks hold sequencing errors
How it was run: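 Synthetic nanobody libraries on Saccharomyces cerevisiae BJ5465 were galactose-induced for 36–48 hours, stained 1 hour at 4 °C with 10% biotinylated, detergent-solubilized Sf9 membrane reagent and enriched on streptavidin microbeads. FACS then separated cells into low and high (top ~1%) gates by anti-HA (expression) and streptavidin (reagent binding) fluorescence. Genes were colony-PCR amplified, MiSeq 2 × 250 sequenced and CDR-length filtered. A clone's polyreactivity label is that of its gate of origin.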

| Sequence | polyreactivity (PSR sort gate) |
| --- | --- |
| QVQLVESGGGLVQAGGSLRLSCAASGRTFKRNGMGWYRQAPGKERELVAAIRNTGSTKYADSVKGRFTISRDNAKNTVYLQMNSLKPEDTAVYYCNARVYEAQTYYYWGQGTQVTVSS | high polyreactivity |
| QVQLVESGGGLVQAGGSLRLSCAASGRIFFYNTKGWYRQAPGKERELVAVISSSDGSTYADSVKGRFTISRDNAKNTVYLQMNSLKPEDTAVYYCNAGWTRYVPYVRMDYWGHGTQVTVSS | high polyreactivity |
| QVQLEESGGGLVQAGGSLRLSCAASGFTFVSYAMGWYRQAPGKERELVAAISRRGGRTYYADSVKGRFTISRDNAKNTVYLQMNSLKPEDTAVYYCNKDYYGSPSSYYWYDYWGQGTQVTVSS | high polyreactivity |
| QVQLVESGGGLVQARGSLRLSCAASGRTFYYYAMGWSRQAPGKERELVATISSGGSTSYADSVKGRFTISRDNAKNTVNLQMNSLKPEDTAVYYWNGRGRYLGTYHLGRLYNFWGQGTQVTVSS | high polyreactivity |
| QVQLVESGGGLVQAGGSLRLSCAASGSTFYSYAMGWYRQAPGKERELVASITRGGSTNYADSVKGRFTISRDNAKNTVYLQMNSLKPEDTAVYYCITRGNARMDYWGQGTQVTVSS | high polyreactivity |
| QVQLEESGGGLVQAGGSLRLSCAASGSTNVKYAMGWYRQAPGKERELVAAITYSGDSTYYADSLKGRFTSSRDNAKNTVYLQINSLKPEDTAVYYWAAELVVRYMVSDYELEYWGQGTQVTVSS | low polyreactivity |
| QDQLVESGGGLVQAGGSLRLSCAASGYIFSTYAMGWYRQAPGKERELVAAISSSGGSTYYADSVKGRFTISRDNAKNTVFLQMNSLKPEDTAVYYCYAGKHVRQRYDHWGQGTQVSVSS | high polyreactivity |
| QVQLVESGGGLVQAGGSLRLSCAASGSTFGPYAMGWYRQAPGKERELVAAITKSGGRTYYADSVKGRFTISRDNAKNTVYLQMNSLKPEDTAVYYCAAYGSVGLEYWGQGTQVTVSS | high polyreactivity |
| QVQLVESGGGLVQAGGSLRLSCAASGSTFGLNTMGWYRQAPGKERELVAGITWSGGTTYYADSVKGRFTISRDNAKNTVYLQMNSLKPEDTAVSYCAAAVSDHYWYSRAYYYWGQGTQVTVSS | high polyreactivity |
| QVQLVESGGGLVQAGGSLRLICAASGRTFRDYAMGWYRQAPGKEWELVAVISRRGSSTYYADSVKGRFTISRDNAKNTVYLQMNSLKPEDTAVYYCARVPTTWRYAYGYWGQGTQVTVSS | high polyreactivity |
| QVHLVESAGGLVQAGGSLRLSCAPSGSTFPLYVMGWYRQAPGKERELVAAIDWSGGSTYYADSVKGRFTISRDNAKNTVYLQMNRLKPEDSAVYYCNARYLRRGDYWGQGTQVTVSS | low polyreactivity |
| QVQLVESGGGLVQAGGSLRLSCAASGRIFTSYTMGWYRQAPGKERELVAAISASGASTYYADSVKGRFTISRDNAKNTVYLQMNSLKPEDSAVYYCATVRPRERRGYWGQGTQVTVSS | high polyreactivity |
| QVQLVESGGGLVQAGGSLRLSCAASGSIFRVYAMGWYRHAPGKERELVATITWNGGSTYYADSVKGRFTISRDNAKNTVYLQMNSLKPEDTAVYYCAAGRDTWPSTYYYWGQGSQVTVSS | low polyreactivity |
| QVQLVESGGGLVQAGGSLRLSCAASGRIFSHYDLGWYRQAPGKEREVVAAISSGGITYYADSVKGRFTISRDNAKNTVYLQRNSLKPEDTAVYYCAAVRRRGTTYDYWGQGTQVTVSS | high polyreactivity |
| QVQLVESGGGLVQAGGILPLSCAASGSIFVSNAMGWSRQAPGKERELVAAISSGSTYYADSVKGRFTISRDNAKNTVYLQMNSLKPEDTAVFYCIARSLLYEFDYWGQGTQVTVSS | low polyreactivity |
| QVQLVESGGGLDQAGGSLRLSCAASGRIFRYYAMGWYRQAPGKERELVAAISTSGDTTYYADSVKGRFTISRDNAKNTVYLQMNSLKPEDTAVYYCAADTYYYLVKYGSYDYWGQGTQVTVSS | high polyreactivity |

| Sequence | polyreactivity (PSR sort gate) |
| --- | --- |
| QVQLVESGGGLVQAGGSLRLSCAASGRTFAYNAMGWYRQAPGKERELVADITSGGSTYYADSVKGRFTISRDNAKNTVYLQMNSLKPEDTAVYYCAAYPQFWYWDYNYWGQGTQVTVSS | high polyreactivity |
| QVQLVESGGGLVQAGGSLRLSCAASGSTFGDYAMGWFRQAPGKERELVAAMNSGDSRNYADSVKGRFTISRDNAKNTVYLQMNSLKPEDTAVYYCAAEPWSISYVYYKYKYESWGQGTQVTVSS | low polyreactivity |
| QLQLVESAGGLVQAGGSLRLSCAASGIIFSYYAMGWYRKAPGKERELVAAISWSGGSTYYADSVKGRFTISRDNAKNTVYLQLNSLKPEDTAVYYCAADDYLAYEYWGQGTQVTVSS | high polyreactivity |
| QVQLVESGGGLDQAGGSLRLSCAASGSIFPDYAMGWYIPAPGKERELVAAITWSGGNTYYADSVKGRFTISRDNAKNTVYLQMNSLKPEDTAVYYCAADISLHWYYYRRYNYWGQGTQVTVSS | low polyreactivity |
| QVQLVESGGGLVQAGGSLRLSCAASGNTFSYYAMGRYRQSPGKEREFVAAIRKSGASTYYADTVKGRFTISRDNAKNTVYLQINSLKPEDTALYYCAADGQVSYALGFDYWGQGTQVTVSS | high polyreactivity |
| QVQLVESGGGLVQAGGSLRLSCAASGSTIRNYAMGWYRQAPGKERELVAAISSGGRTYYADSVKGRFTISRDNAKNTVYLQMNSLKPEDTAVYYCKGRSYSRMYYWGQGTQVTVSS | high polyreactivity |
| QVQHVESGRGLVQAGRSLRLSCAASGRIFQRYAMGWYRQAPGKERELVAVITKRGGNTYYADSVKGRFTISRDNAKNTVYLQMNSLKPEDTAVYYCASRSGRSTGDYWGQGTQVTVSS | high polyreactivity |
| QVQLVESGGGLVQAGGSLRLTCAASRLTFDDNAMGWYRQAPGKERELVAAISYNGGSTYYADSVKGRFTISRDNAKNTVYLQMNSLKPEDTAVYYCAADISVGRYGDMDYWGQGTQVTVSS | low polyreactivity |
| QVQLVESGGGLVQAGGSLRLSCAASGSTFIWNGMGWYRQAPGKERELVAAITSSSTNYADSVKGRFTISRDNAKNTVYLQMNSLKPEDTAVYYCAAEIYPLGSLRLGPGEYDHWGQGTQVTVSS | low polyreactivity |
| QVQLVDTGGGLVQAGGSLRFSCAASGSIFQVYAMGWYRQAPGKERELVASITSSGGSTYYADSVKGRFTISRDNAKNTVYLQMNSLKTEDTAVYYCADDQWSQDYDYWGQGTQVTVSS | low polyreactivity |
| QVQLVESGGGLVQAGGSLRLSCAASGSIFRGYVMGWYRQAPGKERELVAAIRWRGGDTRYADSVKGRFTISRDNAKNTVYLQMNSLKPEDTAVYYCAAQYRKTQYQKKYDYWGQGTQVTVSS | high polyreactivity |
| QVQLVESGGGLVQAGGSLRLSCAASGSTLRRYAMGWYRQAPGKERELVAAITYRSGSTYYADSVKGRFTISRDNAKNTVYLQMNSLKPEDTAVYYCAKVGYVSKYWFAGDYWGQGTQVTVSS | high polyreactivity |
| QVQLVESGGGLVQAGGSLRLSCAASGFTFRFYVMGWYRQAPGKERELVAAISSGGGSTYYADSVKGRFTISRDNAKNTVYLQMNSLKPEDTAVYYCNALKVSFLTITKYEYWGQGTQVTVSS | high polyreactivity |
| QVQLEESGGRLVQAGCSLRLSCAASGRTFDYYAMGWYRQAPGKEWELVAAITASGGSTFYADSVKGRFTISRDNAKNTVYLQMYSMKPEDTAVYYCAGRYTWRYFIKYGYWGQGTQVTVSS | high polyreactivity |
| QVQLVESGGGLVQAGGSLRLSCAASGFIFGRYTMGWYRQAPGKERELVAAITYSGNTYYADSVKGRFTISRDKAKTTVYVQMNSLKPEDTALYYCNAYGANFRAFRNAYKYWGQGTQVTVSS | high polyreactivity |
| QVQLVESGGGLDQAGGSLRLSCAASGRTFEQYAMGWYRQAPGKVRELVAAISGSGGSTFYADSVKGRFTISRDNAKNTVYLQMNSLKPEDTAVYYCADKYDGSYVGLYWYSMNYCGQGTQVTVSS | low polyreactivity |
